Measured values published in patent publication US20200157226A1 (DRAGONFLY THERAPEUTICS, published 2020).

T1: human NKG2D expressed on cells (primary human NK cells); EL4 mouse lymphoma cell lines engineered to express … (human, UniProt P26718 1-216)
T1 construct: whole, on cells; also called NKG2D expressed on EL4 cells; NKG2D on primary human NK cells
T1 sequence (looked up): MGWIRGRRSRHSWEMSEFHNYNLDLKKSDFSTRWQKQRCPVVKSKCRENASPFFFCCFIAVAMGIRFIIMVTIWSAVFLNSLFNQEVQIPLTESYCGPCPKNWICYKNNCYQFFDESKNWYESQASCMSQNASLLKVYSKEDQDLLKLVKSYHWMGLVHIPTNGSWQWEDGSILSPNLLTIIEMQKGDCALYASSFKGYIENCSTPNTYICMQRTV

T2: 5T4 expressed on human cancer cell lines (human, UniProt Q13641 32-420)
T2 construct: the assays used endogenous 5T4 on BxPC3, H146, H1975, HCT116, MCF7 and N87 cells; also called tumor-associated 5T4 antigen; human trophoblast glycoprotein 5T4
T2 sequence: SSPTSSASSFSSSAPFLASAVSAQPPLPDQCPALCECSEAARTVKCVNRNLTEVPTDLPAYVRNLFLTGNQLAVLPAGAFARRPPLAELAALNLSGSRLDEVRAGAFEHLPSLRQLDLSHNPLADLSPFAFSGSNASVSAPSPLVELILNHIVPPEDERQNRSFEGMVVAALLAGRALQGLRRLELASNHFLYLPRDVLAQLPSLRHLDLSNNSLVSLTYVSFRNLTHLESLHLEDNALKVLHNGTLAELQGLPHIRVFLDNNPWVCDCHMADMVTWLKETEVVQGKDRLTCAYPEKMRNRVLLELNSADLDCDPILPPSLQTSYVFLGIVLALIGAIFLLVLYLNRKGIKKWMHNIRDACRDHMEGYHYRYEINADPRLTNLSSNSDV

B1: anti-5T4 monoclonal antibody 5T4A (antibody, V domains shown)
VH: EVQLVESGGGLVQPGGSLRLSCAASGFTFSNYWMNWVRQAPGKGLEWVGEIRLKSDKYATYYAESVKGRFTISRDDSKNSLYLQMNNLKTEDTGVYYCARRRGYYGSAYGMDYWGQGTLVTVSS
VL: DIQMTQSPSSLSASVGDRVTITCKASQDINSYLSWFQQKPGKAPKILIYRANRLVDGVPSRFSGSGSGKDFTFTISSLQPEDIATYYCLQYDFLPLTFGGGTKVEIK
notes: detected with anti-human IgG secondary antibody; also called 5T4 monoclonal antibody (mAb)
B2: anti-5T4 monoclonal antibody 5T4R (antibody, V domains shown)
VH: EVHLLESGGGLVHPGGSLRLSCAASGFTFRSDAMHWVRQAPGKGLEWVSGVSGSGGSPYYADSVKGRFTISRDDSKTTLYLQMNSLRAEDTAVYYCATGGSIAGSYYYYPMDVWGQGTTVTVSS
VL: DIQMTQSPSSLSASVGDRVTITCQASQDISNYLNWYQQKPGKAPKLLIYAASTLQIGVPSRFSGSGSGTDFTFTISSLQPEDFATYYCQQANSFPLTFGGGTKVEIK
notes: detected with anti-human IgG secondary antibody; also called parental anti-5T4R monoclonal antibody; 5T4 monoclonal antibody (mAb)

How the values were obtained:
[1] = target: T1, human NKG2D expressed on cells (primary …); assay: flow cytometry on primary human NK cells
Method: Primary human NK cells and EL4 mouse lymphoma cell lines engineered to express human NKG2D were used to test binding affinity of trispecific binding proteins (TriNKETs) to NKG2D. Each of the TriNKETs tested contains an NKG2D-binding domain, a tumor-associated antigen binding domain (e.g., a 5T4-binding domain), and an Fc domain that binds to CD16 as shown in FIG. 1. TriNKETs were diluted to 20 μg/mL, and then diluted serially. The binding of the TriNKETs or the parental anti-5T4 monoclonal antibodies to NKG2D were detected using fluorophore-conjugated anti-human IgG secondary antibodies. Cells were analyzed by flow cytometry, and fold-over-background (FOB) was calculated by normalizing the mean fluorescence intensity (MFI) to human recombinant IgG1 staining control.

[2] = target: T2, 5T4 expressed on human cancer cell lines; assay: flow cytometry on BxPC3 cells
Method: (§1) Human cancer cell lines (BxPC3, H146, H1975, HCT116, MCF7 and N87) expressing the tumor-associated 5T4 antigen were used to assay the binding of 5T4-targeting TriNKETs to the antigen. In separate experiments, the TriNKETs or the parental anti-5T4 monoclonal antibodies were incubated with the each of the cell lines, and the binding of the TriNKETs or anti-5T4 monoclonal antibodies to the cells was detected using fluorophore-conjugated anti-human IgG secondary antibodies. Flow cytometry was used to analyze the binding of the TriNKETs or anti-5T4 monoclonal antibodies to the cells, and fold-over-background (FOB) was calculated by normalizing the mean fluorescence intensity (MFI) to human recombinant IgG1 staining control.

[3] = target: T2, 5T4 expressed on human cancer cell lines; assay: flow cytometry on 5T4-expressing human cancer cell lines
Method: as §1

| Binder | binding result [1] | binding result [2] | binding result [3] |
| --- | --- | --- | --- |
| B1 | no binding | binds | – |
| B2 | no binding | – | binds |
